{"source": "paper PMC7516205", "about": "“The Two-Component Locus MSMEG_0244/0246 Together With MSMEG_0243 Affects Biofilm Assembly in M. smegmatis Correlating With Changes in Phosphatidylinositol Mannosides Acylation” (Frontiers in Microbiology, 2020)", "proteins": {"B1": {"name": "StrepMSMEG_0243 (truncated MSMEG_0243 lacking the predicted signal peptide) (natural protein, Mycobacterium smegmatis mc2155, UniProt A0QP20 26-116, looked up)", "chain": "DPAPNPPNCTAADLAGVASGVSAGTSAYLFTHPQVNDFFTSLEGLPREEVKPKVADYLAANPQVKDELTAVRQPLVDLKNRCGTAPAPELP", "notes": "truncated version lacking the predicted signal peptide (predicted cleavage site between pos. 25 and 26: ALA-DP); The methods name the vector once as pET-22(b)+ and once as pET-28(b)+; vector-derived residues may be present; also called apo-MSMEG_0243; source: E. coli Bl21 Rosetta, purified (Streptavidin beads, size exclusion chromatography)"}}, "molecular_target": "the molecule itself", "assay": "SEC; HiLoad Superdex 200 PG, 20 mM Tris-HCl, 100 mM NaCl, pH 7.4; apo protein after Strep-tag purification; elution profile overlaid with that of a protein of known size (25.0 kDa)", "data": [{"protein": "B1", "values": [{"measurement": "stoichiometry N", "value": 2}]}]}
